Results from patent publication US20210205411A1, “CCR5 INHIBITOR FOR USE IN TREATING CANCER” (ORION BIOTECHNOLOGY SWITZERLAND SÀRL, priority 2018, published 2021).

Columns and labels:
[1] = test system: CT-26 colorectal cancer cell line; test: CT-26 colorectal cancer animal model; format: in vivo, BALB/c mice; settings: for tumor growth / mean tumor volume: intraperitoneal
From the text: In one experiment, BALB/c mice were inoculated subcutaneously with the CT-26 colorectal cancer cell line. […] Treatment was given daily or every third day.
In another experiment, BALB/c mice were inoculated subcutaneously with the CT-26 colorectal cancer cell line. […] 5P12-RANTES treatment was given five times a week.

recombinant human CCR1 = target: T1, recombinant human CCR1 (Homo sapiens, UniProt P32246); test: GTPγ35S functional assay, inhibition testing, CCR1; format: biochemical; settings: FIG. 3A
T1 construct: host or cells: CHO-K1 cells (membrane extracts)
T1 sequence (P32246 1-355): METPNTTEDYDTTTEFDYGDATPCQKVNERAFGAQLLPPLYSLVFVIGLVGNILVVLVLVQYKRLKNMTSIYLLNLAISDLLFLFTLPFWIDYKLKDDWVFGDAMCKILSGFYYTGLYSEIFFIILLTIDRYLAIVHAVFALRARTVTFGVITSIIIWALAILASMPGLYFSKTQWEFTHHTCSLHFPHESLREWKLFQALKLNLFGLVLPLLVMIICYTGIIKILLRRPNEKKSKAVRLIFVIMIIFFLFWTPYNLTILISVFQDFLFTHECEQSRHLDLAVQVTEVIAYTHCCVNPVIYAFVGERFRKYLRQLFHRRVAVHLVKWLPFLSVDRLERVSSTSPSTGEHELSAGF
Description: (§1) Assay buffer was 20 mM HEPES pH 7.4; 200mM NaCl, 10 μg/ml saponin, MgCl2 at optimized concentration for the specific receptor, 0.1% BSA. CHO-K1 cells expressing recombinant human receptor membrane extracts were thawed on ice, diluted in assay buffer and kept on ice. GDP was diluted in assay buffer to give optimized concentration for the specific receptor. Beads were PVT-WGA (PerkinElmer, RPNQ001), diluted in assay buffer at a concentration optimized for the specific receptor. GTPγ^35S (PerkinElmer NEG030X) was diluted in assay buffer to give 0.1 nM.
(§2) For inhibition testing, membranes were mixed with GDP and incubated for at least 15 min on ice. In parallel, GTPγ^35S was mixed with the beads just before starting the reaction. The following reagents were successively added in the wells of an Optiplate (PerkinElmer): 50 μL of test or reference ligand, 20 μL of the membranes:GDP mix, 10 μL of reference agonist at historical EC80 and 20 μL of the GTPγ^35S:beads mix.
(§3) The plates were covered with a top seal, mixed on an orbital shaker for 2 min, and then incubated for 1 hour at room temperature. Then the plates were centrifuged for 10 min at 2000 rpm, incubated at room temperature for 1 hour and counted for 1 min/well with a PerkinElmer TopCount reader. […]
(§4) Dose-response data were analyzed with XLfit (IDBS) software using nonlinear regression applied to a sigmoidal dose-response model.

[2] = Preclinical single dose intravenous infusion, cynomolgus macaques; format: in vivo; settings: 20 mg/kg
From the text: (§5) These findings indicate that this N-terminally modified RANTES variant and its structurally related analogs have enhanced efficacy compared to MVC which is known to be therapeutically effective against several types of cancer, with very little side effects.

[3] = Preclinical single dose intravenous infusion, rats; format: in vivo; settings: 20 mg/kg
From the text: as §5

recombinant human CCR3 = target: T2, recombinant human CCR3 (Homo sapiens, UniProt P51677); test: GTPγ35S functional assay, inhibition testing, CCR3; format: biochemical; settings: CHO-K1 membrane extracts; reference agonist at EC80; FIG. 3B
T2 construct: host or cells: CHO-K1 cells (membrane extracts)
T2 sequence (P51677 1-355): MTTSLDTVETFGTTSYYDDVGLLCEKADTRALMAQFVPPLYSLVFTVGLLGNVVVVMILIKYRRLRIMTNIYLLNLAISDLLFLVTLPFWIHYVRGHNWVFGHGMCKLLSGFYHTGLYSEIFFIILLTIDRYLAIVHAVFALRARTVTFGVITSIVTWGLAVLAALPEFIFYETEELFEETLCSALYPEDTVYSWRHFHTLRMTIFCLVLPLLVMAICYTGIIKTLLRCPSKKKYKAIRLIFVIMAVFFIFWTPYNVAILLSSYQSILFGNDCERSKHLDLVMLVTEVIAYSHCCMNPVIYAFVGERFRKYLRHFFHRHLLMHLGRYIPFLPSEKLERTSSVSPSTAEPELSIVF
Description: as §1, §2, §3, §4

HIV-1BaL = test: HIV-1 replication assay in peripheral blood mononuclear cells; format: cell-based; settings: PBMC from a panel of US donors, FIG. 2
Description: For each donor, each compound was evaluated at 9 concentrations in triplicate. Each point represents log IC50 for an individual donor.

human CCR5 [4] = target: T3, human CCR5 (Homo sapiens, UniProt P51681); test: CCR5 signaling inhibition, aequorin calcium sensor in CHO cells, agonist human MIP-1β/CCL4; settings: read-out: IC50, inhibition of CCR5 signaling (FIG. 1C), CHO cells expressing human CCR5, agonist MIP-1β/CCL4, n=2
T3 sequence (P51681 whole entry): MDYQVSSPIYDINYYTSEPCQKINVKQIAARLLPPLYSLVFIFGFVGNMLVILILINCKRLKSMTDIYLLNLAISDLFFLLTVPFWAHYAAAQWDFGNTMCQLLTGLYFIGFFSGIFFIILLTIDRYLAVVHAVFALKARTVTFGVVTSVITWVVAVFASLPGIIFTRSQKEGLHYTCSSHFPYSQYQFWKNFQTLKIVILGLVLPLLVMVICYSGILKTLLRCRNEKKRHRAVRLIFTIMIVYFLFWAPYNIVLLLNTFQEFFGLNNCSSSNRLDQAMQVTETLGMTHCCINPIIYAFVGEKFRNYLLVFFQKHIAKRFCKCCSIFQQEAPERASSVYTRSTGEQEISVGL
From the text: The signaling activity measured in the cells at each inhibitor concentration is expressed as a percentage of the signal elicited by the agonist in the absence of inhibitor (n=2) (FIGS. 1A, 1B and 1C).

human CCR5 [5] = target: T3, human CCR5; test: cell-based or functional assay

B1: 5P12-RANTES: N-terminally modified RANTES variant (SEQ ID NO: 70), CCR5 inhibitor (protein)
chain: QGPPLMATQSCCFAYIARPLPRAHIKEYFYTSGKCSNPAVVFVTRKNRQVCANPEKKWVREYINSLEMS
modifications: ends and bridges not checked
adverse events during treatment ([1]; anti-CTLA-4 experiment, start ten days after inoculation): No adverse events | adverse events during treatment ([1]; anti-PD-1 experiment, start three days after inoculation): No significant adverse events | tumor growth / mean tumor volume ([1]; start ten days after inoculation, five times a week, anti-CTLA-4 experiment, FIG. 4B): delayed tumor growth at multiple time-points | tumor growth / mean tumor volume ([1]; start three days after inoculation, daily or every third day, anti-PD-1 experiment, FIG. 4A): statistically significant delayed tumor growth at multiple time-points | antagonism of CCR1 (recombinant human CCR1; CHO-K1 membrane extracts, reference agonist at EC80): no antagonism | potentiation of CCR1 signaling (recombinant human CCR1; at the highest concentrations): moderate level of potentiation | adverse events [2]: without any adverse events | adverse events [3]: without any adverse events | antagonism towards CCR3 (recombinant human CCR3): no antagonism | times more potent than MVC in inhibiting HIV-1 replication (HIV-1BaL): 10-30 times

B2: PRO-140 (antibody, INN chains, looked up, V domains shown)
VH: EVQLVESGGGLVKPGGSLRLSCAASGYTFSNYWIGWVRQAPGKGLEWIGDIYPGGNYIRNNEKFKDKTTLSADTSKNTAYLQMNSLKTEDTAVYYCGSSFGSNYVFAWFTYWGQGTLVTVSS
VL: DIVMTQSPLSLPVTPGEPASISCRSSQRLLSSYGHTYLHWYLQKPGQSPQLLIYEVSNRFSGVPDRFSGSGSGTDFTLKISRVEAEDVGVYYCSQSTHVPLTFGQGTKVEIK
IC50 (human CCR5 [4]): 5.6 nM | IC50 of inhibition of CCL4-induced CCR5 signaling (aequorin calcium sensor, CHO cells), FIG. 1C (human CCR5 [5]): 5.6 nM
